Laboratory results published in patent US6984624B2, “Composition containing an iron complexing protein and a precursor of nitrogen monoxide metabolism and/or a chemical donor of nitrogen monoxide and uses thereof” (Isocell S.A., priority 2000, dated 2006).

Assays:
[1] = tested on: Intestinal epithelial cells of the Caco-2 line; experiment: Iron fixation at the cellular level over 16 hours of culture (Example 1, FIG. 1); type: cell-based, human; conditions: Caco-2 cells, no L-arginine
Description: Native bovine Lf was treated at pH 1 so as to substitute the unlabeled iron that it contained in the natural state with ^59Fe labeled iron.
The Lf-^59Fe was then purified in order to remove the nonfixed labeled iron, by gel filtration on a column of SEPHADEX® G-75.
(§1) Intestinal epithelial cells of the Caco-2 line derived from a colon cancer were incubated in a proportion of 2×10^6 cells per ml in an RPMI 1640 medium buffered at pH 7.4, in the presence of 25 mmolar of Hepes, containing 15% (v/v) of fetal calf serum, 2 mmol/l of L-glutamine and 1% (v/v) of a solution of streptomycin-penicillin, sold by the company Gibco.
(§2) Iron fixation at the cellular level was then initiated by adding Lf-^59Fe and/or labeled iron and/or L-arginine.
(§3) One of the cell culture tubes received none of these three constituents, so as to act as a control.
The distribution of the constituents, and also the concentrations at which they were used, appear in Table I below:
The cells were then incubated for a period of 16 hours in Eppendorf tubes kept stirring for the final 2 hours of the culture period. Throughout the incubation period, the amount of cellular iron was measured by centrifugation pellet of the cells a first time after 30 minutes (t=0.5), then after one hour (t=1), and then every hour (t=2 to t=16), using a device for measuring the radioactivity.

[2] = tested on: Intestinal epithelial cells of the Caco-2 line; experiment: Degree of iron fixation at the cellular level as a function of concentrations (Example 3); type: cell-based, human; conditions: Caco-2 cells, after 72 hours of incubation; tube contents per Table III (mg/ml); Control = 1
Description: as §1
Twelve tubes of epithelial cell cultures were prepared according to the conditions described above in Example 1.
as §2, §3
The distribution of the constituents, and also the concentrations at which they were used, appear in Table III below:
The degree of cellular fixation of iron was measured after 72 hours of incubation using a device for measuring the radioactivity.

B1: Lf-^59Fe: Native bovine lactoferrin treated at pH 1 and saturated with ^59Fe labeled iron (85% to 100% saturation) (protein, UniProt P24627 20-708, looked up)
Lactotransferrin: APRKNVRWCTISQPEWFKCRRWQWRMKKLGAPSITCVRRAFALECIRAIAEKKADAVTLDGGMVFEAGRDPYKLRPVAAEIYGTKESPQTHYYAVAVVKKGSNFQLDQLQGRKSCHTGLGRSAGWIIPMGILRPYLSWTESLEPLQGAVAKFFSASCVPCIDRQAYPNLCQLCKGEGENQCACSSREPYFGYSGAFKCLQDGAGDVAFVKETTVFENLPEKADRDQYELLCLNNSRAPVDAFKECHLAQVPSHAVVARSVDGKEDLIWKLLSKAQEKFGKNKSRSFQLFGSPPGQRDLLFKDSALGFLRIPSKVDSALYLGSRYLTTLKNLRETAEEVKARYTRVVWCAVGPEEQKKCQQWSQQSGQNVTCATASTTDDCIVLVLKGEADALNLDGGYIYTAGKCGLVPVLAENRKSSKHSSLDCVLRPTEGYLAVAVVKKANEGLTWNSLKDKKSCHTAVDRTAGWNIPMGLIVNQTGSCAFDEFFSQSCAPGADPKSRLCALCAGDDQGLDKCVPNSKEKYYGYTGAFRCLAEDVGDVAFVKNDTVWENTNGESTADWAKNLNREDFRLLCLDGTRKPVTEAQSCHLAVAPNHAVVSRSDRAAHVKQVLLHQQALFGKNGKNCPDKFCLFKSETKNLLFNDNTECLAKLGGRPTYEEYLGTEYVTAIANLKKCSTSPLLEACAFLTR
modifications: 59Fe iron-saturated
Persistence of the iron fixed in the cell [1]: only transiently fixed

B2: Cell culture tube 3: Table III tube: Lf-^59Fe 0.01 mg/ml alone (protein, UniProt P24627 20-708, looked up)
Lactotransferrin: APRKNVRWCTISQPEWFKCRRWQWRMKKLGAPSITCVRRAFALECIRAIAEKKADAVTLDGGMVFEAGRDPYKLRPVAAEIYGTKESPQTHYYAVAVVKKGSNFQLDQLQGRKSCHTGLGRSAGWIIPMGILRPYLSWTESLEPLQGAVAKFFSASCVPCIDRQAYPNLCQLCKGEGENQCACSSREPYFGYSGAFKCLQDGAGDVAFVKETTVFENLPEKADRDQYELLCLNNSRAPVDAFKECHLAQVPSHAVVARSVDGKEDLIWKLLSKAQEKFGKNKSRSFQLFGSPPGQRDLLFKDSALGFLRIPSKVDSALYLGSRYLTTLKNLRETAEEVKARYTRVVWCAVGPEEQKKCQQWSQQSGQNVTCATASTTDDCIVLVLKGEADALNLDGGYIYTAGKCGLVPVLAENRKSSKHSSLDCVLRPTEGYLAVAVVKKANEGLTWNSLKDKKSCHTAVDRTAGWNIPMGLIVNQTGSCAFDEFFSQSCAPGADPKSRLCALCAGDDQGLDKCVPNSKEKYYGYTGAFRCLAEDVGDVAFVKNDTVWENTNGESTADWAKNLNREDFRLLCLDGTRKPVTEAQSCHLAVAPNHAVVSRSDRAAHVKQVLLHQQALFGKNGKNCPDKFCLFKSETKNLLFNDNTECLAKLGGRPTYEEYLGTEYVTAIANLKKCSTSPLLEACAFLTR
modifications: 59Fe iron-saturated
Degree of iron fixation in the cells (cpm ^59Fe) [2]: 1.1 ± 0.1 cpm ^59Fe

B3: Cell culture tube 1: Table III tube: Lf-^59Fe 1 mg/ml alone (protein, UniProt P24627 20-708, looked up)
Lactotransferrin: APRKNVRWCTISQPEWFKCRRWQWRMKKLGAPSITCVRRAFALECIRAIAEKKADAVTLDGGMVFEAGRDPYKLRPVAAEIYGTKESPQTHYYAVAVVKKGSNFQLDQLQGRKSCHTGLGRSAGWIIPMGILRPYLSWTESLEPLQGAVAKFFSASCVPCIDRQAYPNLCQLCKGEGENQCACSSREPYFGYSGAFKCLQDGAGDVAFVKETTVFENLPEKADRDQYELLCLNNSRAPVDAFKECHLAQVPSHAVVARSVDGKEDLIWKLLSKAQEKFGKNKSRSFQLFGSPPGQRDLLFKDSALGFLRIPSKVDSALYLGSRYLTTLKNLRETAEEVKARYTRVVWCAVGPEEQKKCQQWSQQSGQNVTCATASTTDDCIVLVLKGEADALNLDGGYIYTAGKCGLVPVLAENRKSSKHSSLDCVLRPTEGYLAVAVVKKANEGLTWNSLKDKKSCHTAVDRTAGWNIPMGLIVNQTGSCAFDEFFSQSCAPGADPKSRLCALCAGDDQGLDKCVPNSKEKYYGYTGAFRCLAEDVGDVAFVKNDTVWENTNGESTADWAKNLNREDFRLLCLDGTRKPVTEAQSCHLAVAPNHAVVSRSDRAAHVKQVLLHQQALFGKNGKNCPDKFCLFKSETKNLLFNDNTECLAKLGGRPTYEEYLGTEYVTAIANLKKCSTSPLLEACAFLTR
modifications: 59Fe iron-saturated
Degree of iron fixation in the cells (cpm ^59Fe) [2]: 1.2 ± 0.1 cpm ^59Fe

B4: Cell culture tube 2: Table III tube: Lf-^59Fe 0.1 mg/ml alone (protein, UniProt P24627 20-708, looked up)
Lactotransferrin: APRKNVRWCTISQPEWFKCRRWQWRMKKLGAPSITCVRRAFALECIRAIAEKKADAVTLDGGMVFEAGRDPYKLRPVAAEIYGTKESPQTHYYAVAVVKKGSNFQLDQLQGRKSCHTGLGRSAGWIIPMGILRPYLSWTESLEPLQGAVAKFFSASCVPCIDRQAYPNLCQLCKGEGENQCACSSREPYFGYSGAFKCLQDGAGDVAFVKETTVFENLPEKADRDQYELLCLNNSRAPVDAFKECHLAQVPSHAVVARSVDGKEDLIWKLLSKAQEKFGKNKSRSFQLFGSPPGQRDLLFKDSALGFLRIPSKVDSALYLGSRYLTTLKNLRETAEEVKARYTRVVWCAVGPEEQKKCQQWSQQSGQNVTCATASTTDDCIVLVLKGEADALNLDGGYIYTAGKCGLVPVLAENRKSSKHSSLDCVLRPTEGYLAVAVVKKANEGLTWNSLKDKKSCHTAVDRTAGWNIPMGLIVNQTGSCAFDEFFSQSCAPGADPKSRLCALCAGDDQGLDKCVPNSKEKYYGYTGAFRCLAEDVGDVAFVKNDTVWENTNGESTADWAKNLNREDFRLLCLDGTRKPVTEAQSCHLAVAPNHAVVSRSDRAAHVKQVLLHQQALFGKNGKNCPDKFCLFKSETKNLLFNDNTECLAKLGGRPTYEEYLGTEYVTAIANLKKCSTSPLLEACAFLTR
modifications: 59Fe iron-saturated
Degree of iron fixation in the cells (cpm ^59Fe) [2]: 1.0 ± 0.2 cpm ^59Fe
